# Paper doi:10.1101/2021.04.25.441314
# Read-outs that look alike come from different tables or passages of the source.
# B1: 3'ETSleuZ (structured_RNA)
# RNA: GGCCCGGAUGGUGGAAUCGGUAGACACAAGGGAUUUAAAAUCCCUCGGCGUUCGCGCUGUGCGGGUUCAAGUCCCGCUCCGGGUACCAUGGGAAAGAUAAGAAUAAAAUCAAAGCAAUAAGCAGUGUCGUGAAACCACCUUCGGGUGGUUUUUUU
# B2: GcvB (structured_RNA)
# RNA: GACUUCCUGAGCCGGAACGAAAAGUUUUAUCGGAAUGCGUGUUCUGGUGAACUUUUGGCUUACGGUUGUGAUGUUGUGUUGUUGUGUUUGCAAUUGGUCUGCGAUUCAGACCAUGGUAGCAAAGCUACCUUUUUUCACUUCCUGUACAUUUACCCUGUCUGUCCAUAGUGAUUAAUGUAGCACCGCCUAAUUGCGGUGCUUUUUUU
# B3: AgvB-U0 (structured_RNA)
# RNA: GGCGAUAACACAACAAUAUCAGUAUCUCAUGCUAUUGCCCGAACCCAUUCGGGCA
# B4: AgvB-U9 (structured_RNA)
# RNA: GGCGAUAACACAACAAUAUCAGUAUCUCAUGCUAUUGCCCGAACCCAUUCGGGCAUUUUUUUUU
# B5: RybB (structured_RNA)
# RNA: GGCCACUGCUUUUCUUUGAUGUCCCCAUUUUGUGGAGCCCAUCAACCCCGCCAUUUCGGUUCAAGGUUGAUGGGUUUUUU
# B6: 3'ETSleuZ-U4 (structured_RNA)
# RNA: GGCCCGGAUGGUGGAAUCGGUAGACACAAGGGAUUUAAAAUCCCUCGGCGUUCGCGCUGUGCGGGUUCAAGUCCCGCUCCGGGUACCAUGGGAAAGAUAAGAAUAAAAUCAAAGCAAUAAGCAGUGUCGUGAAACCACCUUCGGGUGGUUUU
# B7: AgvB (structured_RNA)
# RNA: GGCGAUAACACAACAAUAUCAGUAUCUCAUGCUAUUGCCCGAACCCAUUCGGGCAUUUUU
# How the values were obtained:
# Hfq wt [1] = molecular target: T1, Hfq wt (Escherichia coli, UniProt P0A6X3 1-102); assay: competition
# Hfq wt [2] = molecular target: T1, Hfq wt; assay: competition; remark: listed apart in the source
# Hfq R16A (rim) [3] = molecular target: T2, Hfq R16A (rim) (Escherichia coli, UniProt P0A6X3 1-102, R16A); assay: filter binding
# Hfq Y25D (distal face) [4] = molecular target: T3, Hfq Y25D (distal face) (Escherichia coli, UniProt P0A6X3 1-102, Y25D); assay: filter binding
# Hfq wt [5] = molecular target: T1, Hfq wt; assay: filter binding
# Hfq R16A (rim) [6] = molecular target: T2, Hfq R16A (rim); assay: filter binding; remark: listed apart in the source
# Hfq Y25D (distal face) [7] = molecular target: T3, Hfq Y25D (distal face); assay: filter binding; remark: listed apart in the source
# Hfq wt [8] = molecular target: T1, Hfq wt; assay: filter binding; remark: listed apart in the source
# Hfq Y25D (distal face) [9] = molecular target: T3, Hfq Y25D (distal face); assay: filter binding; remark: listed apart in the source
# Hfq R16A (rim) [10] = molecular target: T2, Hfq R16A (rim); assay: filter binding; remark: listed apart in the source
# Hfq wt [11] = molecular target: T1, Hfq wt; assay: filter binding; remark: listed apart in the source
# Hfq R16A (rim) [12] = molecular target: T2, Hfq R16A (rim); assay: filter binding; remark: listed apart in the source
# Hfq Y25D (distal face) [13] = molecular target: T3, Hfq Y25D (distal face); assay: filter binding; remark: listed apart in the source
# Hfq wt [14] = molecular target: T1, Hfq wt; assay: filter binding; remark: listed apart in the source
# Hfq Y25D (distal face) [15] = molecular target: T3, Hfq Y25D (distal face); assay: EMSA
# Hfq wt [16] = molecular target: T1, Hfq wt; assay: filter binding; remark: listed apart in the source
# Hfq Y25D (distal face) [17] = molecular target: T3, Hfq Y25D (distal face); assay: filter binding; remark: listed apart in the source
# Hfq K56A (proximal face) = Hfq K56A (proximal face) (Escherichia coli, UniProt P0A6X3 1-102, K56A); assay: filter binding
# Hfq wt [18] = molecular target: T1, Hfq wt; assay: filter binding; remark: listed apart in the source
# Hfq R16A (rim) [19] = molecular target: T2, Hfq R16A (rim); assay: filter binding; remark: listed apart in the source
binder,measurement,setting,value
B1,IC50,Hfq wt [1],39 ± 7.3 nM
same,IC50,Hfq wt [2],2.8 ± 0.35 nM
same,binding result,Hfq R16A (rim) [3],binds
same,Kd,Hfq Y25D (distal face) [4],0.34 ± 0.18 nM
same,Kd,Hfq wt [5],0.22 ± 0.008 nM
B2,IC50,Hfq wt [1],23 ± 5.2 nM
same,binding signal,Hfq R16A (rim) [6],30 fold weaker than wt Hfq
same,Kd,Hfq Y25D (distal face) [7],< 1 nM
same,Kd,Hfq wt [8],< 1 nM
B3,Kd,Hfq Y25D (distal face) [9],21 ± 8 nM
same,Kd,Hfq R16A (rim) [10],3.9 ± 0.76 nM
same,Kd,Hfq wt [11],1.75 ± 0.6 nM
B4,Kd,Hfq R16A (rim) [12],0.19 ± 0.02 nM
same,Kd,Hfq Y25D (distal face) [13],0.12 ± 0.016 nM
same,Kd,Hfq wt [14],0.18 ± 0.02 nM
B5,binding result,Hfq Y25D (distal face) [15],binds
B6,binding result,Hfq wt [16],binds
B7,IC50,Hfq wt [1],9.9 ± 2.7 nM
same,Kd,Hfq Y25D (distal face) [17],0.13 ± 0.003 nM
same,IC50,Hfq wt [2],3.2 ± 1.4 nM
same,Kd,Hfq K56A (proximal face),27.2 ± 2.4 nM
same,Kd,Hfq wt [18],0.38 ± 0.06 nM
same,Kd,Hfq R16A (rim) [19],2.7 ± 0.12 nM
